Source: patent publication US5130300A, “Method for enhancing growth of mammary parenchyma” (Monsanto Company, priority 1987, dated 1992)

What was measured:
[1] = tested on: Quarter-Udders in Pregnant Beef Cattle; assay: Intramammary infusion of ovine prolactin, quarter-udder weights and DNA (Comparative Examples); format: in vivo, cross-bred beef cows
Experimental: 16 pregnant, non-lactating, cross-bred beef cows in their last 30-105 days of gestation were divided into 2 groups and tested for the effects of intramammary infusion using the procedures of Examples 25-28 except that instead of a prostaglandin, each treatment infusion contained either 2 mg (Group 1) or 10 mg (Group 2) of ovine prolactin obtained from Sigma Chemical Co., St. Louis, Mo. (Lot No. 26F-0076) in 10 ml of an emulsion of 0.9% saline containing 0.5% Tween-20 in sterile sesame oil containing 5% Arlacel A (3:2 oil: saline). Results are in Tables 22-23.

[2] = tested on: Quarter-Udders in Pregnant Holstein Heifers; assay: Intramammary infusion, milk production per udder side in first 30 days after parturition (Examples 23-24, 42-43); format: in vivo
Experimental: 18 pregnant Holstein heifers within their last 40-60 days of expected calving were housed in a free-stall facility, fed a ration of alfalfa hay and pelleted concentrate and administered 10 ml of an excipient (sterile sesame oil) into each quarter-udder by intramammary infusion through the steak canal every third day for the number of treatments shown below. The heifers in Groups 1 and 3 were treated no later than their fifth day before parturition; treatments of those in Groups 2 and 4 were continued into their last five days. Treatments containing a mitogenic substance were administered to both quarter-udders on one side of each animal. Excipient only was administered to both quarter-udders on the opposite side of that animal. All infusions were carried out with a Jorgensen laboratories infusion canula of the kind used in Examples 1-2. Each teat was sprayed with 70% ethanol and wiped dry prior to treatment, and dipped with an iodine solution following treatment. These animals were milked normally each a.m. and p.m. for the first 30 days after parturition, with milk production recorded separately for each quarter-udder. […] Shown in Table 21 are the milk production results obtained with the heifers of Group 3 in Examples 23-24. On average, milk production by the half-udders that had been treated in Group 4 of Examples 23-24 slightly exceeded (2%, p<0.4) that of their control half-udders.

[3] = tested on: Quarter-Udders in Pregnant Beef Cows; assay: Intramammary infusion of BST, quarter-udder weights and DNA (Examples 40-41); format: in vivo, cross-bred beef cows; settings: for DNA, % Increase, (A-B)/B / DNA, Mean Increase (A-B) / Dry Fat-Free Weight, % Increase, (A-B)/B / Dry Fat-Free Weight, Mean Increase (A-B) / Dry Weight, % Increase, (A-B)/B / Dry Weight, Mean Increase (A-B) / Wet Weight, % Increase, (A-B)/B / Wet Weight, Mean Increase (A-B): B = excipient only
Experimental: 24 pregnant, non-lactating, cross-bred beef cows in their last 40-80 days of gestation were divided into 2 groups and tested for the effects of intramammary infusion using the procedures of Examples 3-6 except that (A) the volume of excipient in each infusion was 5 ml and (B) each treatment infusion contained a 1% zinc salt of an N-methionyl bovine somatotropin (BST) (Group 1-100 mg; Group 2-40 mg) prepared by expression of recombinant DNA and purified essentially as described in Example 1A of U.S. Patent Appln. No. 787,873 filed Oct. 16, 1985 based on European Patent Appln. No. 177,478 published Apr. 9, 1986, both incorporated here by reference. Results are in Tables 19-20.

[4] = Group 1: total of 10 milligrams (2 mg per infusion)
[5] = Group 1: total of 10 milligrams, B = control mean
[6] = Group 2: total dose of 50 milligrams (10 mg per infusion)
[7] = Group 2: total dose of 50 milligrams, B = control mean
[8] = Group 1: total of 500 milligrams BST
[9] = Group 1: total of 500 milligrams BST (100 mg per infusion)
[10] = Group 2: total of 200 milligrams BST
[11] = Group 2: total of 200 milligrams BST (40 mg per infusion)

B1: Ovine Prolactin: ovine prolactin from Sigma Chemical Co. (Lot No. 26F-0076), comparative example (protein, UniProt P01240 31-229, looked up)
Prolactin: TPVCPNGPGNCQVSLRDLFDRAVMVSHYIHNLSSEMFNEFDKRYAQGKGFITMALNSCHTSSLPTPEDKEQAQQTHHEVLMSLILGLLRSWNDPLYHLVTEVRGMKGVPDAILSRAIEIEEENKRLLEGMEMIFGQVIPGAKETEPYPVWSGLPSLQTKDEDARHSAFYNLLHCLRRDSSKIDTYLKLLNCRIIYNNNC
- DNA, Treatment Mean [1, 4]: 2526 mg
- Dry Fat-Free Weight, Treatment Mean [1, 4]: 137.8 g
- Dry Weight, Treatment Mean [1, 4]: 262.7 g
- Wet Weight, Treatment Mean [1, 4]: 895.3 g
- Dry Fat-Free Weight, % Increase, (A-B)/B [1, 5]: .88%
- Dry Fat-Free Weight, Mean Increase (A-B) [1, 5]: 1.2 g
- Dry Weight, % Increase, (A-B)/B [1, 5]: 1.0%
- Dry Weight, Mean Increase (A-B) [1, 5]: 4.8 g
- Wet Weight, % Increase, (A-B)/B [1, 5]: .6%
- Wet Weight, Mean Increase (A-B) [1, 5]: 5.4 g
- DNA, Treatment Mean [1, 6]: 3672 mg
- Dry Fat-Free Weight, Treatment Mean [1, 6]: 189.2 g
- Dry Weight, Treatment Mean [1, 6]: 343.4 g
- Wet Weight, Treatment Mean [1, 6]: 1487.1 g
- DNA, % Increase, (A-B)/B [1, 7]: 10.5%
- DNA, Mean Increase (A-B) [1, 7]: 350 mg
- Dry Fat-Free Weight, % Increase, (A-B)/B [1, 7]: 2.5%
- Dry Fat-Free Weight, Mean Increase (A-B) [1, 7]: 4.7 g
- Wet Weight, % Increase, (A-B)/B [1, 7]: 13.6%
- Wet Weight, Mean Increase (A-B) [1, 7]: 178.6 g

B2: BST: N-methionyl bovine somatotropin prepared by expression of recombinant DNA (protein, UniProt P01246 27-217, looked up)
Somatotropin: AFPAMSLSGLFANAVLRAQHLHQLAADTFKEFERTYIPEGQRYSIQNTQVAFCFSETIPAPTGKNEAQQKSDLELLRISLLLIQSWLGPLQFLSRVFTNSLVFGTSDRVYEKLKDLEEGILALMRELEDGTPRAGQILKQTYDKFDTNMRSDDALLKNYGLLSCFRKDLHKTETYLRVMKCRRFGEASCAF
modifications: N-terminal Met
notes: N-methionyl bovine somatotropin prepared by expression of recombinant DNA
- Average Milk Production, Treated Side (A) ([2]; BST 50 mg per infusion every third day, no later than fifth day before parturition (Group 3 per text), first 30 days after parturition): 10.9 kg/day
- Average Milk Production, % Increase, (A-B)/B ([2]; BST 50 mg per infusion, no later than fifth day before parturition (Group 3 per text), B = control side, excipient only): 11%
- Milk production of treated half-udders in excess of control half-udders ([2]; Group 4: BST 50 mg per infusion, treatments continued into last five days before parturition): 2%
- DNA, Avg. % Increase/Animal [3, 8]: 10.5%
- Dry Fat-Free Weight, Avg. % Increase/Animal [3, 8]: 7.9%
- Dry Weight, Avg. % Increase/Animal [3, 8]: 10.7%
- Wet Weight, Avg. % Increase/Animal [3, 8]: 9.8%
- DNA, Treatment Mean [3, 9]: 2185 mg
- Dry Fat-Free Weight, Treatment Mean [3, 9]: 146.7 g
- Dry Weight, Treatment Mean [3, 9]: 207.6 g
- Wet Weight, Treatment Mean [3, 9]: 790.1 g
- DNA, % Increase, (A-B)/B [3, 8]: 6.4%
- DNA, Mean Increase (A-B) [3, 8]: 131 mg
- Dry Fat-Free Weight, % Increase, (A-B)/B [3, 8]: 3.6%
- Dry Fat-Free Weight, Mean Increase (A-B) [3, 8]: 5.2 g
- Dry Weight, % Increase, (A-B)/B [3, 8]: 8.9%
- Dry Weight, Mean Increase (A-B) [3, 8]: 17.0 g
- Wet Weight, % Increase, (A-B)/B [3, 8]: 7.3%
- Wet Weight, Mean Increase (A-B) [3, 8]: 53.5 g
- DNA, Avg. % Increase/Animal [3, 10]: 15.8%
- Dry Fat-Free Weight, Avg. % Increase/Animal [3, 10]: 7.8%
- Dry Weight, Avg. % Increase/Animal [3, 10]: 10.7%
- Wet Weight, Avg. % Increase/Animal [3, 10]: 13.4%
- DNA, Treatment Mean [3, 11]: 1371 mg
- Dry Fat-Free Weight, Treatment Mean [3, 11]: 49.5 g
- Dry Weight, Treatment Mean [3, 11]: 96.4 g
- Wet Weight, Treatment Mean [3, 11]: 396.9 g
- DNA, % Increase, (A-B)/B [3, 10]: 5.5%
- DNA, Mean Increase (A-B) [3, 10]: 72 mg
- Dry Fat-Free Weight, % Increase, (A-B)/B [3, 10]: 10.5%
- Dry Fat-Free Weight, Mean Increase (A-B) [3, 10]: 4.7 g
- Dry Weight, % Increase, (A-B)/B [3, 10]: 13.3%
- Dry Weight, Mean Increase (A-B) [3, 10]: 11.3 g
- Wet Weight, % Increase, (A-B)/B [3, 10]: 14.9%
- Wet Weight, Mean Increase (A-B) [3, 10]: 51.5 g
